Results taken from patent US7838288B2, “Modulators of odorant receptors” (Duke University, priority 2004, dated 2010).

How the values were obtained:
MOR203-1 = experiment: Living-cell staining of cell-surface MOR203-1; format: cell-based, mouse; conditions: accessory protein co-transfected in 293T cells
Source text: After hypothesizing that mammalian ORs require accessory protein(s) for functional cell surface expression, a search was instituted for detecting such molecule(s). Long-SAGE (serial analysis of gene expression) libraries (see, e.g., Saha, S., et al., (2002) Nat Biotechnol 20, 508-512; herein incorporated by reference in its entirety) were constructed from single olfactory neurons as well as neurons from the vomeronasal organ and genes were collected that are expressed by these neurons. To identify candidate genes expressed by the olfactory neurons Digital Differential Display (see, e.g., http://www, followed by, .ncbi.nlm.nih.gov/UniGene/info_ddd.shtml) was also used. Candidate genes were investigated for ORFs that encode membrane associated proteins. Genes were selected with similarities to known chaperones and cloned the cDNAs from olfactory epithelium cDNAs. The mRNA expression of each gene was verified by in situ hybridization. After isolating and subcloning into mammalian expression vectors, each cDNA together with a mouse OR (MOR203-1) tagged with a 20 N-terminal amino acids of rhodopsin (Rho-tag), was transfected into 293T cells. We measured whether these clones had any effect on the cell-surface expression of ORs by staining living cells using antibodies against the Rho-tag (see, e.g., Laird, D. W., and Molday, R. S. (1988) Invest Opthalmol Vis Sci 29, 419-428; herein incorporated by reference in its entirety). When MOR203-1 was transfected alone, antibody staining detected only faint cell-surface expression in less than 1% of the cells. A schematic diagram outlining the screening procedure utilized with the present invention is provided at FIG. 1.
293T cells were maintained in minimal essential medium containing 10% fetal bovine serum (M10). Lipofectamine 2000 (Invitrogen) was used for transfection. In live-cell staining, 16 hours after transfection, cells were incubated in M10 containing anti rhodopsin antibody, 4D2 (see, e.g., Laird, D. W., and Molday, R. S. (1988) Invest Opthalmol V is Sci 29, 419-428; herein incorporated by reference in its entirety) and 15 mM NaN3 at 4 degrees C. for 1 hour. After washing, cells were incubated with Cy3-conjugated anti mouse IgG (Jackson Immunologicals), washed and mounted. For FACS analysis, 4D2 and PE-conjugated anti mouse IgG (Jackson Immunologicals) were used to monitor the Rho tagged receptor expression. Anti HA rabbit antibodies (Sigma) and Alexa 488 conjugated anti rabbit IgG (Molecular Probes) was used to stain the HA-β2 adrenergic receptor. To establish the Hana3a cells, 1 ug/ml of puromycin was used for selection. 96 colonies were picked and assayed using luciferase assay using OREG.

[1] = biological target: T1, mouse odorant receptor OREG (Mus musculus, UniProt Q920P2); experiment: CRE-luciferase reporter gene assay, OREG; format: cell-based; conditions: 293T cells; compared to OR alone or control pCI
T1 construct: expressed in transfected cells; host or cells: 293T cells (with or without co-transfected REEP1/RTP1/RTP2) and Hana3A cells (293T stably expressing mouse REEP1, RTP1, RTP2, Galpha-olf)
T1 sequence (Q920P2 1-313): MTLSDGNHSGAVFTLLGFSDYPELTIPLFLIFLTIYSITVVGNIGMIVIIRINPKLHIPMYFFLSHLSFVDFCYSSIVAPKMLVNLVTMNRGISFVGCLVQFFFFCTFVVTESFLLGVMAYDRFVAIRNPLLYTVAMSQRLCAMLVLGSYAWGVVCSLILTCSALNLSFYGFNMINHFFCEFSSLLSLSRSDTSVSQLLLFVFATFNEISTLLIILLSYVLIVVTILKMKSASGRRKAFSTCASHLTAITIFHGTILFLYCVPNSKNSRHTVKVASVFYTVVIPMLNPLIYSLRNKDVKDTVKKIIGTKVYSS
Procedure, shortened: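 293T-derived cells stably expressing REEP1, RTP1, RTP2 and Gαolf, transfected with OREG, CRE-luciferase and SV40-Renilla control. Odorant applied in CD293 medium for 10 h or 4 h at 37 degrees C. Output is firefly luminescence minus no-odorant value, normalized to Renilla.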

B1: RTP1-A1: RTP1 variant from deleting portions of RTP1-A; murine SEQ ID NO: 46, human SEQ ID NO: 47 (protein, listed as Mus musculus)
chain: MCKSVTTGEWKKVFYEKMEEVKPADSWDFIIDPNLKHNVLAPGWKQYLELHASGRFHCSWCWHTWQSPHVVILFHMYLDKAQRAGSVRMRVFKQLCYECGTARLDESSMLEENIESLVDNLITSLREQCYGERGGHYRIHVASRQDNRRHRGEFCEACQEGIVHWKPSEKLLEEEATTYTFSRAPSPTKPQAETGSGCNFCSIPWCLFWATVLMLIIYLQFSFRTSV
cell surface expression of MOR203-1 (MOR203-1): Increased cell-surface staining
OREG activity by luciferase, accessory protein co-expressed [1]: Increased enhancement
